The results in this text go back to paper PMC10760634 (Genes & Development, 2023).

The assay concerns the target UBE2D2 (wild type) (UniProt P62837 1-147). Put plainly: ITC. On the technique in general: In ITC the heat of successive injections is recorded.

UBE2D2 (wild type), sequence (P62837 whole entry): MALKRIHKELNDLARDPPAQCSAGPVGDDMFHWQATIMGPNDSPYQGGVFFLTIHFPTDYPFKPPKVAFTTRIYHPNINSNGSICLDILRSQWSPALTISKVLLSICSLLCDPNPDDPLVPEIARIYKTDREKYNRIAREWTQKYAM

B1: PHF7 (mPHF7 28–307) (domain or fragment)
chain: SSSPVCLLCLQEPGDPEKLGEFLQKDNLCVHYFCLILSSRLPQKGQPNRGLHGFMPEDIKREAVRASKKICFVCKKKGAAIRCQNDQCVQNFHLPCGQERGCLSQFFGEYKSYCRKHRPTQNIHQGSLGEESCVLCCENLSRTSVENIQSPCCSQAIYHRKCIQKYAHTSAKHFFKCPQCNNREEFPQEMLRMGIHIPDRDAAWELEPGAFSELYQRYRHCDAPICLYEQGRDSFEDEGRWRLILCATCGSHGTHRDCSSLRPNSKKWECNECLPASTTS
modifications: RED-NHS dye label (in the MST assay only)
With B1, the binding result is given as “binds”.
